Experiment [1] addresses T1, Fc-fusion cyno BCMA (in-house; Cat# BCMW6.001) (cyno, UniProt Q02223 1-54 (human entry)).
T1 construct: also called Fc-BCMA Cy; cyno Fc-BCMA; not shown: Fc part
Briefly: SPR, cyno Fc-BCMA. A general note: Surface plasmon resonance follows binding to a sensor surface in real time, without labels.

In experiment [2] the target is T1, Fc-fusion cyno BCMA (in-house; Cat# …). Briefly: SPR, Fc-BCMA, two-state model, step 2.
Experiment [3] shares this target. In words: SPR, Fc-BCMA, two-state model, first complex.
For experiment [4] the target is unchanged. In words: SPR, Fc-BCMA, two-state model, step 1 (kon1); first step (kon1).
For experiment [5] the target is unchanged. Briefly: SPR, Fc-BCMA, two-state model, step 1 (koff1); first step (koff1).
For experiment [6] the target is unchanged. In words: SPR, Fc-BCMA, two-state model, Final KD; Final complex KD, two-state model.
Experiment [7] concerns the target T2, Recombinant human BCMA-Fc fusion protein (R&D Systems catalog #193-BC-050) (human, UniProt Q02223 1-54).
T2 construct: also called hBCMA-Fc; Fc-BCMA Hu; not shown: Fc part of the bought fusion protein
T2 sequence: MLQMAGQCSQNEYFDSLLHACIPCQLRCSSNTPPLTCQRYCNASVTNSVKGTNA
In words: SPR, Fc-BCMA, two-state model, step 2.

The target of experiment [8] is T2, Recombinant human BCMA-Fc fusion …. In words: SPR, Fc-BCMA, two-state model, first complex.
The target is the same in experiment [9]. Briefly: SPR, Fc-BCMA, two-state model, step 1 (kon1); first step (kon1).
Experiment [10] has the same target. Briefly: SPR, Fc-BCMA, two-state model, step 1 (koff1); first step (koff1).
Experiment [11] shares this target. Briefly: SPR, Fc-BCMA, two-state model, Final KD; Final complex KD, two-state model.
For experiment [12] the target is unchanged. In words: SPR, human Fc-BCMA.

As a reminder, the kon is the rate constant with which the complex forms. Broadly, the koff is the first-order rate constant of dissociation. The Kd is the concentration at which binding is half-saturated.

B1: BC3B7 (BCMA×CD3 bispecific antibody, BCMB117 × CD3B219) (bispecific antibody, human IgG4 S228P, lambda, F234A L235A)
heavy 1: EVQLVESGGGLVQPGGSLRLSCAASGFTFNTYAMNWVRQAPGKGLEWVARIRSKYNNYATYYAASVKGRFTISRDDSKNSLYLQMNSLKTEDTAVYYCARHGNFGNSYVSWFAYWGQGTLVTVSSASTKGPSVFPLAPCSRSTSESTAALGCLVKDYFPEPVTVSWNSGALTSGVHTFPAVLQSSGLYSLSSVVTVPSSSLGTKTYTCNVDHKPSNTKVDKRVESKYGPPCPPCPAPEAAGGPSVFLFPPKPKDTLMISRTPEVTCVVVDVSQEDPEVQFNWYVDGVEVHNAKTKPREEQFNSTYRVVSVLTVLHQDWLNGKEYKCKVSNKGLPSSIEKTISKAKGQPREPQVYTLPPSQEEMTKNQVSLTCLVKGFYPSDIAVEWESNGQPENNYKTTPPVLDSDGSFLLYSKLTVDKSRWQEGNVFSCSVMHEALHNHYTQKSLSLSLGK
light 1: QTVVTQEPSLTVSPGGTVTLTCRSSTGAVTTSNYANWVQQKPGQAPRGLIGGTNKRAPGTPARFSGSLLGGKAALTLSGVQPEDEAEYYCALWYSNLWVFGGGTKLTVLGQPKAAPSVTLFPPSSEELQANKATLVCLISDFYPGAVTVAWKADSSPVKAGVETTTPSKQSNNKYAASSYLSLTPEQWKSHRSYSCQVTHEGSTVEKTVAPTECS
heavy 2: not shown
light 2: SYVLTQPPSVSVAPGQTARITCGGNNIGSKSVHWYQQPPGQAPVVVVYDDSDRPSGIPERFSGSNSGNTATLTISRVEAGDEAVYYCQVWDSSSDHVVFGGGTKLTVLGQPKAAPSVTLFPPSSEELQANKATLVCLISDFYPGAVTVAWKADSSPVKAGVETTTPSKQSNNKYAASSYLSLTPEQWKSHRSYSCQVTHEGSTVEKTVAPTECS
notes: also called BC3BY; B117 × B219
For the molecule B1, the “fold tighter affinity than BCMB72” value in experiment [1] was determined as 2 fold. In experiment [2], the koff2 was 0.000415 s⁻¹ and the kon2 amounted to 0.0015 s⁻¹. In experiment [3], this molecule gave a KD1 of 3.04 nM. In experiment [4], this molecule registered a kon of 1.38e+06 M⁻¹ s⁻¹. The molecule also yielded an off-rate constant (koff) in experiment [5] of 0.00417 s⁻¹. Besides, in experiment [6], binding was characterised by a dissociation constant (Kd) of 0.65 nM.

B2: BC3B9 (BCMA×CD3 bispecific antibody, BCMB128 × CD3B219) (bispecific antibody, human IgG4 S228P, lambda, F234A L235A)
heavy 1: B1 heavy 1
light 1: B1 light 1
heavy 2: not shown
light 2: B1 light 2
notes: IgG4 made by Fab arm exchange; also called B128 × B219
For B2, in experiment [1], the “fold tighter affinity than BCMB72” value amounted to 3 fold. The koff2 in [7] is 0.000364 s⁻¹; in experiment [2], 0.000376 s⁻¹. For the same molecule, the kon2 in [7] was determined as 0.00506 s⁻¹; in experiment [2], 0.0016 s⁻¹. Also, the KD1 turned out to be 0.79 nM in experiment [8] and 1.94 nM in experiment [3]. Further, the results for the kon in [9] and in [4] were 2.58e+06 M⁻¹ s⁻¹ and 2.18e+06 M⁻¹ s⁻¹, respectively. The koff amounted to 0.00205 s⁻¹ in experiment [10] and 0.00423 s⁻¹ in experiment [5]. In addition, the Kd stood at 0.05 nM in [11] and 0.37 nM in experiment [6].

B3: BC3B12 (BCMA×CD3 bispecific antibody, BCMB177 × CD3B219) (bispecific antibody, human IgG4 S228P, lambda, F234A L235A)
heavy 1: B1 heavy 1
light 1: B1 light 1
heavy 2: not shown
light 2: B1 light 2
notes: IgG4 made by Fab arm exchange; also called B177 × B219
As to B3, in [12], the “fold weaker affinity than BCMB72” value fell in the range of 2 to 3 fold. Also, the koff2 was 0.000557 s⁻¹ in [7] and 0.000337 s⁻¹ in experiment [2]. For the same molecule, the kon2 in experiment [7] was 0.00129 s⁻¹; in experiment [2] it was 0.00146 s⁻¹. Also, the KD1 in [8] came to 0.72 nM; in experiment [3], 5.65 nM. For the same molecule, the association rate constant (kon) in experiment [9] is 1.78e+06 M⁻¹ s⁻¹; in experiment [4] it was 1.48e+06 M⁻¹ s⁻¹. Also, the off-rate constant (koff) in [10] was 0.00129 s⁻¹; in [5], 0.00831 s⁻¹. Besides, the dissociation constant (Kd) in [11] came to 0.22 nM; in [6] it was 1.06 nM.
